The text below walks through data of publication PMC9770967, “Native holdup (nHU) to measure binding affinities from cell extracts” (Science Advances, 2022).

Holding throughout (assay type): binding, human
Assay [1] deals with SNX27_PDZ. As to the kind of experiment: AP-MS control pull-down on leftover resin, SNX27_PDZ bait, total Jurkat extracts. The settings on record: AP-MS control pull-down, total Jurkat extract. The procedure:
Leftover beads from nHU-MS experiments were washed three times immediately after the separation of the supernatant [10 resin volume in buffer containing 50 mM tris (pH 8.5), 150 mM NaCl, 1% Triton X-100, 10× cOmplete EDTA-free protease inhibitor cocktail, 2 mM EDTA, and 1 mM TCEP]. Then, the beads were washed two times [10 resin volume buffer containing 50 mM tris (pH 8.5), 150 mM NaCl, and 1 mM TCEP]. Last, captured protein was eluted from the resin in two steps, and the eluted fractions were pooled. For each elution, the beads were incubated for 30 min with three resin volume buffer containing 20 mM tris (pH 8.5), 100 mM NaCl, 500 μM TCEP, and 8 M urea. Between each step, the beads were separated by mild centrifugation, and the supernatant was removed by gentle pipetting.
The nHU samples were precipitated with trichloroacetic acid (TCA) 20% overnight at 4°C and centrifuged at 14,000 rpm for 10 min at 4°C. The protein pellets were washed twice with 1 ml of cold acetone and air-dried. The protein extracts were solubilized in 8 M urea, reduced with 5 mM TCEP for 30 min, and alkylated with 10 mM iodoacetamide for 30 min in the dark. Double digestion was performed at 37°C with 500 ng of endoproteinase Lys-C (Wako, Richmond, USA) for 4 hours, followed by fourfold dilution and an overnight digestion with 500 ng of trypsin (Promega, Charbonnieres les Bains, France). Peptide mixtures were then desalted on a C18 spin-column and dried on a speed vacuum.
Samples were analyzed using an Ultimate 3000 nano-RSLC coupled in line via a nano-electrospray ionization source, with an LTQ-Orbitrap ELITE mass spectrometer (Thermo Fisher Scientific, San Jose, CA) or with the Orbitrap Exploris 480 mass spectrometer (Thermo Fisher Scientific, Bremen, Germany) equipped with a high field asymmetric ion mobility spectrometry (FAIMS) module. Peptide mixtures were injected in 0.1% trifluoroacetic acid on a C18 Acclaim PepMap100 trap column [75 μm inner diameter (ID) × 2 cm, 3 μm, 100 Å, Thermo Fisher Scientific] for 3 min at 5 μl/min with 2% acetonitrile (ACN) and 0.1% formic acid (FA) in H2O and then separated on a C18 Acclaim PepMap100 nano-column (75 μm ID × 50 cm, 2.6 μm, 150 Å, Thermo Fisher Scientific) at 300 nl/min and 40°C with a 90-min linear gradient from 5 to 30% buffer B (A: 0.1% FA in H2O/B: 80% ACN, 0.1% FA in H2O) and regeneration at 5% B. Spray voltage was set to 2.1 kV and heated capillary temperature was set to 280°C.
For the Orbitrap Elite, the mass spectrometer was operated in positive ionization mode in data-dependent mode with survey scans from mass/charge ratio (m/z) 350 to 1500 acquired in the Orbitrap at a resolution of 120,000 at m/z 400. The 20 most intense peaks from survey scans were selected for further fragmentation in the linear ion trap with an isolation window of 2.0 Da and were fragmented by collision-induced dissociation (CID) with a normalized collision energy of 35% (TOP 20 CID method). Unassigned and single-charged states were excluded from fragmentation. The ion target value for the survey scans (in the Orbitrap) and the MS2 mode (in the linear ion trap) were set to 1E6 and 5E3, respectively, and the maximum injection time was set to 100 ms for both scan modes. Dynamic exclusion was set to 20 s after one repeat count with mass width at ±10 parts per million (ppm).
Proteins were identified by database search using SequestHT (Thermo Fisher Scientific) with Proteome Discoverer 2.4 software (PD2.4, Thermo Fisher Scientific) on the human FASTA database downloaded from UniProt (reviewed, release 2021_06_03, 20380 entries, https://uniprot.org/, complemented with sequences of likely contaminants, such as MBP, streptavidin, or trypsin). Precursor and fragment mass tolerances were set at 7 ppm and 0.6 Da, respectively, and up to two missed cleavages were allowed. […]

The test system of assay [2] is SNX27_PDZ. Description: nHU-MS, SNX27_PDZ bait, total Jurkat extracts, series 1. The conditions noted are these: nHU-MS, total Jurkat extract. The procedure: (§1) The empty His6-AviTag-MBP-TEV vector was used to produce biotinylated MBP for control experiments. Proteins were coexpressed with BirA biotin ligase (PET21a-BirA, Addgene, no. 20857) in Escherichia coli BL21(DE3) cells. At isopropyl-β-D-thiogalactopyranoside (IPTG) induction (1 mM IPTG at 18°C overnight), 50 μM biotin was added to the media. Harvested cells were lysed in a buffer containing 50 mM tris (pH 7.5), 150 to 300 mM NaCl, 50 μM biotin, 2 mM β-mercaptoethanol, cOmplete EDTA-free protease inhibitor cocktail (Roche, Basel, Switzerland), 1% Triton X-100, and trace amount of deoxyribonuclease, ribonuclease, and lysozyme. Lysates were frozen at −20°C before further purification steps. Lysates were sonicated and centrifuged for clarification. Expressed proteins were captured on in-house prepacked Ni-IDA (Protino Ni-IDA Resin, Macherey-Nagel, Duren, Germany) columns and were washed with at least 10 column volumes of cold wash buffer [50 mM tris (pH 7.5), 150 mM NaCl, and 2 mM β-mercaptoethanol] before elution with 250 mM imidazole. The Ni elution was collected directly on a preequilibrated amylose column (amylose high flow resin, New England Biolabs, Ipswich, MA). Amylose column was washed with 5 column volumes of cold wash buffer before fractionated elution in a buffer containing 25 mM Hepes (pH 7.5), 150 mM NaCl, 1 mM TCEP, 10% glycerol, 5 mM maltose, and cOmplete EDTA-free protease inhibitor cocktail. The concentration of proteins was determined by their ultraviolet absorption at 280 nm before aliquots were snap-frozen in liquid nitrogen and stored at −80°C.
(§2) For saturating streptavidin resin with biotinylated peptides or biotin, 50 μl of streptavidin resin was mixed with biotin or peptide at 40 to 60 μM concentration in 6 to 6.5 resin volume for 60 min. To saturate streptavidin resin with biotinylated proteins, 50 μl of streptavidin resin (Streptavidin Sepharose High Performance, Cytiva) was mixed with biotinylated MBP or MBP-PDZ at 40 to 50 μM concentration in 20× resin volume for 60 min. After saturation, resins were washed a single time [10 resin volume, holdup buffer: 50 mM tris (pH 7.5), 300 mM NaCl, and 1 mM TCEP, 0.22-μm filtered] and were depleted with biotin (10 resin volume, 10 min, holdup buffer supplemented with 100 μM biotin). Last, resins were washed two times (10 resin volume, holdup buffer).
(§3) For single-point nHU experiments carried out at ~10 μM bait concentration, 50 μl of saturated streptavidin resin was mixed with 200 μl of cell lysate (2 mg/ml). Titration experiments were carried out by mixing control and bait-saturated resin and keeping the total resin volume constant; e.g., ~5 μM bait concentration can be achieved by mixing 25 μl of bait-saturated streptavidin resin with 25 μl of control resin and 200 μl of cell lysate (2 mg/ml). Control and bait-saturated resins were prepared in larger amounts, and a serial dilution was prepared with these presaturated resins to achieve different resin ratios.
Unless specified elswhere, the nHU mixture was incubated at 4°C for 2 hours. After the incubation ended, the resin was separated from the supernatant by a brief centrifugation (15 s, 2000 g). Then, half of the supernatant was removed by pipetting without any delay to avoid any resin contamination; e.g., 100 μl of supernatant is collected if 200 μl of cell lysate was used as analyte. Alternatively, the supernatant can be centrifuged an additional time to clarify it further, removing any possible resin contamination. In principle, the separation of the supernatant should be as fast as possible since any delay can perturb the equilibrium. […] Alternatively, the resin can be separated from the supernatant using filter plates (e.g., various products of Millipore, Burlington, MA) or spin columns (e.g., Pierce spin cups—cellulose acetate filter from Thermo Fisher Scientific, Waltham, MA) to achieve faster separation. […]

The next assay deals with full-length SNX27. Description: nHU-MS, recombinant full-length SNX27 bait, total Jurkat extracts. The conditions noted are these: apparent, Fig. 4D, n = 6. The procedure: as §1, §2, §3
Unless specified elswhere, the nHU mixture was incubated at 4°C for 2 hours. After the incubation ended, the resin was separated from the supernatant by a brief centrifugation (15 s, 2000 g). Then, half of the supernatant was removed by pipetting without any delay to avoid any resin contamination; e.g., 100 μl of supernatant is collected if 200 μl of cell lysate was used as analyte. Alternatively, the supernatant can be centrifuged an additional time to clarify it further, removing any possible resin contamination. […]

B1: ZC3HAV1 (protein, UniProt Q7Z2W4 2-902, looked up)
Zinc finger CCCH-type …: ADPEVCCFITKILCAHGGRMALDALLQEIALSEPQLCEVLQVAGPDRFVVLETGGEAGITRSVVATTRARVCRRKYCQRPCDNLHLCKLNLLGRCNYSQSERNLCKYSHEVLSEENFKVLKNHELSGLNKEELAVLLLQSDPFFMPEICKSYKGEGRQQICNQQPPCSRLHICDHFTRGNCRFPNCLRSHNLMDRKVLAIMREHGLNPDVVQNIQDICNSKHMQKNPPGPRAPSSHRRNMAYRARSKSRDRFFQGSQEFLASASASAERSCTPSPDQISHRASLEDAPVDDLTRKFTYLGSQDRARPPSGSSKATDLGGTSQAGTSQRFLENGSQEDLLHGNPGSTYLASNSTSAPNWKSLTSWTNDQGARRKTVFSPTLPAARSSLGSLQTPEAVTTRKGTGLLSSDYRIINGKSGTQDIQPGPLFNNNADGVATDITSTRSLNYKSTSSGHREISSPRIQDAGPASRDVQATGRIADDADPRVALVNDSLSDVTSTTSSRVDDHDSEEICLDHLCKGCPLNGSCSKVHFHLPYRWQMLIGKTWTDFEHMETIEKGYCNPGIHLCSVGSYTINFRVMSCDSFPIRRLSTPSSVTKPANSVFTTKWIWYWKNESGTWIQYGEEKDKRKNSNVDSSYLESLYQSCPRGVVPFQAGSRNYELSFQGMIQTNIASKTQKDVIRRPTFVPQWYVQQMKRGPDHQPAKTSSVSLTATFRPQEDFCFLSSKKYKLSEIHHLHPEYVRVSEHFKASMKNFKIEKIKKIENSELLDKFTWKKSQMKEEGKLLFYATSRAYVESICSNNFDSFLHETHENKYGKGIYFAKDAIYSHKNCPYDAKNVVMFVAQVLVGKFTEGNITYTSPPPQFDSCVDTRSNPSVFVIFQKDQVYPQYVIEYTEDKACVIS
Molecule B1 displayed a Ratio_AP with SNX27_PDZ [1] (SNX27/MBP) of 128.984. In the assay with SNX27_PDZ [1] (SNX27 vs MBP), this molecule displayed an FC_AP of 7.011. Further, the BINDER_AP entry in the assay with SNX27_PDZ [1] (BINDS / DOES NOT BIND) is recorded as “BINDS”. Further, the Ratio_HU in the assay with SNX27_PDZ [2] (SNX27/MBP, sheet "SNX27&Jurkat") was 0.6368. This molecule came in with a BI_HU in the assay with SNX27_PDZ [2] (SNX27 bait vs MBP control, sheet "SNX27&Jurkat") of 0.3632. On SNX27_PDZ [2] (SNX27 bait, not filtered for significance), this molecule gave a pKapp_HU_not_filtered of 4.758. The molecule also yielded an FC_HU in the assay with SNX27_PDZ [2] (SNX27 vs MBP control, sheet "SNX27&Jurkat") of -0.651.

B2: SNX6: component of the SNX-BAR complex (protein, UniProt Q9UNH7 1-406, looked up)
Sorting nexin-6: MMEGLDDGPDFLSEEDRGLKAINVDLQSDAALQVDISDALSERDKVKFTVHTKSSLPNFKQNEFSVVRQHEEFIWLHDSFVENEDYAGYIIPPAPPRPDFDASREKLQKLGEGEGSMTKEEFTKMKQELEAEYLAIFKKTVAMHEVFLCRVAAHPILRRDLNFHVFLEYNQDLSVRGKNKKEKLEDFFKNMVKSADGVIVSGVKDVDDFFEHERTFLLEYHNRVKDASAKSDRMTRSHKSAADDYNRIGSSLYALGTQDSTDICKFFLKVSELFDKTRKIEARVSADEDLKLSDLLKYYLRESQAAKDLLYRRSRSLVDYENANKALDKARAKNKDVLQAETSQQLCCQKFEKISESAKQELIDFKTRRVAAFRKNLVELAELELKHAKGNLQLLQNCLAVLNGDT
In the case of B2, the pKapp at full-length SNX27 is reported as 5.47.

B3: SNX2: component of the SNX-BAR complex (protein, UniProt O60749 1-519, looked up)
Sorting nexin-2: MAAEREPPPLGDGKPTDFEDLEDGEDLFTSTVSTLESSPSSPEPASLPAEDISANSNGPKPTEVVLDDDREDLFAEATEEVSLDSPEREPILSSEPSPAVTPVTPTTLIAPRIESKSMSAPVIFDRSREEIEEEANGDIFDIEIGVSDPEKVGDGMNAYMAYRVTTKTSLSMFSKSEFSVKRRFSDFLGLHSKLASKYLHVGYIVPPAPEKSIVGMTKVKVGKEDSSSTEFVEKRRAALERYLQRTVKHPTLLQDPDLRQFLESSELPRAVNTQALSGAGILRMVNKAADAVNKMTIKMNESDAWFEEKQQQFENLDQQLRKLHVSVEALVCHRKELSANTAAFAKSAAMLGNSEDHTALSRALSQLAEVEEKIDQLHQEQAFADFYMFSELLSDYIRLIAAVKGVFDHRMKCWQKWEDAQITLLKKREAEAKMMVANKPDKIQQAKNEIREWEAKVQQGERDFEQISKTIRKEVGRFEKERVKDFKTVIIKYLESLVQTQQQLIKYWEAFLPEAKAIA
On to B3, for which the pKapp on full-length SNX27 is given as 5.04.

B4: SNX5: component of the SNX-BAR complex (protein, UniProt Q9Y5X3 2-404, looked up)
Sorting nexin-5: AAVPELLQQQEEDRSKLRSVSVDLNVDPSLQIDIPDALSERDKVKFTVHTKTTLPTFQSPEFSVTRQHEDFVWLHDTLIETTDYAGLIIPPAPTKPDFDGPREKMQKLGEGEGSMTKEEFAKMKQELEAEYLAVFKKTVSSHEVFLQRLSSHPVLSKDRNFHVFLEYDQDLSVRRKNTKEMFGGFFKSVVKSADEVLFTGVKEVDDFFEQEKNFLINYYNRIKDSCVKADKMTRSHKNVADDYIHTAACLHSLALEEPTVIKKYLLKVAELFEKLRKVEGRVSSDEDLKLTELLRYYMLNIEAAKDLLYRRTKALIDYENSNKALDKARLKSKDVKLAEAHQQECCQKFEQLSESAKEELINFKRKRVAAFRKNLIEMSELEIKHARNNVSLLQSCIDLFKNN
Consider B4, for which, at full-length SNX27, the pKapp stood at 5.23.
